Results reported in patent US20030219427A1, “TPL-2/COT kinase and methods of use” (priority 1998, published 2003).
* marks the point of attachment. Biotin = O=C1N[C@H]2[C@H](CS[C@H]2CCCCC(=O)*)N1

What was measured:
[1] = biological target: endogenous NF-κB1 p105 (HeLa, Jurkat and 293 cells) (UniProt P19838); test: cell-based or functional assay
[2] = biological target: T1, recombinant p105 541-802 (Homo sapiens (Human), UniProt P19838 540-801); test: surface plasmon resonance (BIAcore), biotinylated peptide on streptavidin chip
T1 construct: Made in E. coli as a GST fusion and cleaved from GST
T1 sequence: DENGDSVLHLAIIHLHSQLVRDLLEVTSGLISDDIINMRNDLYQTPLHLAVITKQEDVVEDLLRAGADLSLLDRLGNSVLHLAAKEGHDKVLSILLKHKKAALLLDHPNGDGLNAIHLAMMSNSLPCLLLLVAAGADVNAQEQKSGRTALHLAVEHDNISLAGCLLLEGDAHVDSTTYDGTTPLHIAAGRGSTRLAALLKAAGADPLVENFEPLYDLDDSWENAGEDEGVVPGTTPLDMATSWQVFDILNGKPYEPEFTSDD
Experimental: Interaction between the TPL-2 C-terminus and recombinant p105 proteins was measured by surface plasmon resonance using the BIAcore system (BIAcore AB, Uppsala, Sweden; (Szabo, A., et al. (1995) Curr. Opin. Struct. biol. 5: 699-705)). The C-terminal 70 amino acids of TPL-2 (TPL-2₃₉₈₋₄₆₇) were synthesised as a biotinylated peptide (conjugated to the equivalent of Cys398 of full length TPL-2) and immobilized on a Streptavidin-coated sensor surface (Sensorchip SA, BIAcore AB). Recombinant p105 proteins were then injected at different concentrations and resonance signals monitored. Dissociation at 25° C. was measured by flushing the TPL-2/p105 complexes with HBS-P buffer (10 MM HEPES-pH7.4, 150 mM NaCl, 0.005% (v/v) polysorbate 20; BIAcore AB). Data were evaluated using BIAevaluation software, version 3.0.2.

[3] = biological target: T2, HA-p105(369-969) (Homo sapiens (Human), UniProt P19838 368-968); test: co-expression in HEK293 cells, isolation of the complex from lysates
T2 construct: also called p105?N
T2 sequence: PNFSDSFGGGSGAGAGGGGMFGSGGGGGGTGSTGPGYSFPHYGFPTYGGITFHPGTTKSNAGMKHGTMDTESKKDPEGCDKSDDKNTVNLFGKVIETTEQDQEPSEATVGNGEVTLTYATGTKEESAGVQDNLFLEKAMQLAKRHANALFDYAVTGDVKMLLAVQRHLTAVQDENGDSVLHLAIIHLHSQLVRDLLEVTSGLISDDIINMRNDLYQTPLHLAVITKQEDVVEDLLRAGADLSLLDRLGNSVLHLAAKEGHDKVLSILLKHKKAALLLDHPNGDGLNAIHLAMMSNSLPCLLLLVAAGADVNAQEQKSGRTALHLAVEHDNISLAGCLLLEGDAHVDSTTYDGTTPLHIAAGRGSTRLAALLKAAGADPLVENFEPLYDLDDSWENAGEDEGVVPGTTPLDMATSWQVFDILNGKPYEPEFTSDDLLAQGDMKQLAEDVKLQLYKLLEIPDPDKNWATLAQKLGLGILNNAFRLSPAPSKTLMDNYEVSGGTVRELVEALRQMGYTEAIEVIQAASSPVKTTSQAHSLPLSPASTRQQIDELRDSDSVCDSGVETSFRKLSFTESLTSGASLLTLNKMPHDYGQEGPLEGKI

[4] = biological target: T3, Myc-Raf1(CAAX) MEK kinase activity (Homo sapiens, UniProt P04049); test: In vitro MEK kinase assay, activated Raf1; type: biochemical
T3 construct: CAAX membrane-targeting motif (C); made in house

[5] = biological target: Myc-TPL-2 (Homo sapiens (Human), UniProt P41279 1-467); test: cell-based or functional assay
[6] = biological target: Myc-TPL-2ΔC (Homo sapiens (Human), UniProt P41279 1-397); test: cell-based or functional assay
Myc-TPL-2ΔC, sequence (P41279 1-397, stated change not applied): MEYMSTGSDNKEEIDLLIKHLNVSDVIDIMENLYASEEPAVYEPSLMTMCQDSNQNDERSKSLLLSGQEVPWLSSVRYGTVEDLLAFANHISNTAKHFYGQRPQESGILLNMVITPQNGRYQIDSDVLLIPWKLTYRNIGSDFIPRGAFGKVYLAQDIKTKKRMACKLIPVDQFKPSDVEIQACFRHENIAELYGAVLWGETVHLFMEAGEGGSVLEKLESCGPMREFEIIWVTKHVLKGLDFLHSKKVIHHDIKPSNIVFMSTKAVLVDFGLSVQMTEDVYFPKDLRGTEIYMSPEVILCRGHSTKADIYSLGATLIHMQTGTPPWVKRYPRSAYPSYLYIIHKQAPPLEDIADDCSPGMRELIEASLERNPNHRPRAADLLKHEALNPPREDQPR

[7] = biological target: T4, endogenous p105 (mouse 3T3 fibroblasts) (mouse, UniProt P25799 1-971); test: anti-TPL-2 immunoprecipitation from lysates of wild type mouse 3T3 fibroblasts, Western blot
T4 sequence (looked up): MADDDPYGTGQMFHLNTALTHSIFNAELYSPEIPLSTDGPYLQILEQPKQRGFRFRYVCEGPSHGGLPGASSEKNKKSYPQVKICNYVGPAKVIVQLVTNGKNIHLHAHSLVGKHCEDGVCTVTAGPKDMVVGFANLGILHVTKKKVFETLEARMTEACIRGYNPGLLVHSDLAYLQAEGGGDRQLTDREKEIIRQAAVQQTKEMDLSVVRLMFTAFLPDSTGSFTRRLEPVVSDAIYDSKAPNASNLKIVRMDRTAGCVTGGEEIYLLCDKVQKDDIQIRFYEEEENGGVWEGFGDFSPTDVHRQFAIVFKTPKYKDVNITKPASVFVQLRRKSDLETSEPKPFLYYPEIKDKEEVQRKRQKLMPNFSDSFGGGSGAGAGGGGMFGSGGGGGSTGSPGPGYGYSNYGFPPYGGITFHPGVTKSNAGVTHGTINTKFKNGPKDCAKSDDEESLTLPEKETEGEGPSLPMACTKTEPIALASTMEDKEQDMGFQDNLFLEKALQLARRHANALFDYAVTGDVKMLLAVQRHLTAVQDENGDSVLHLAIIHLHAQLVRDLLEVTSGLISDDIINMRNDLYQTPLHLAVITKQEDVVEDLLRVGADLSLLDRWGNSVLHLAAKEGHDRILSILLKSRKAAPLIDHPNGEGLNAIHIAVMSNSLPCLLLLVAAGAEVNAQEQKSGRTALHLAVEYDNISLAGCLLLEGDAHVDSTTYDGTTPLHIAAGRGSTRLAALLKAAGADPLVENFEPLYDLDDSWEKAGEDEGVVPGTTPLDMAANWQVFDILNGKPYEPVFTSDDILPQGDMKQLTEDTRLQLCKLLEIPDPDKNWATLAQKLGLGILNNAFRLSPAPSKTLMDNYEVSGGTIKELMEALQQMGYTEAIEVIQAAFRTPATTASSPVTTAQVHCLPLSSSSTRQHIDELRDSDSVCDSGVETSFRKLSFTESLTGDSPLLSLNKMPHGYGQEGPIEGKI
Experimental: (5.5.c) To determine whether p105 regulates the steady-state levels of endogenous TPL-2 protein, cell lysates were prepared from 3T3 fibroblasts derived from wild type and NF-κB1-deficient mice. TPL-2 was readily detected by Western blotting of anti-TPL-2 immunoprecipitates from wild type fibroblasts and was associated with endogenous p105.

**Q.** Which NF-κB-dependent luciferase reporter gene in Jurkat T cells [1] does the source give for TPL-2ΔC (from UniProt P41279 1-397) here?
**A.** The NF-κB-dependent luciferase reporter gene in Jurkat T cells was 12 fold.

B1: biotinylated TPL-2398-467 peptide (peptide)
peptide: C(Biotin)TSLDSALLERKRLLSRKELELPENIADSSCTGSTEESEMLKRQRSLYIDLGALAGYFNLVRGPPTLEYG
notes: Immobilized on a streptavidin-coated BIAcore sensor surface; also called TPL-2 peptide; TPL-2 C-terminus
**Q.** Does B1 bind [2]?
**A.** Result: no binding

B2: COT(131-411) (enzyme, not shown: small tags and cut ends)
chain: PWKLTYRNIGSDFIPRGAFGKVYLAQDIKTKKRMACKLIPVDQFKPSDVEIQACFRHENIAELYGAVLWGETVHLFMEAGEGGSVLEKLESCGPMREFEIIWVTKHVLKGLDFLHSKKVIHHDIKPSNIVFMSTKAVLVDFGLSVQMTEDVYFPKDLRGTEIYMSPEVILCRGHSTKADIYSLGATLIHMQTGTPPWVKRYPRSAYPSYLYIIHKQAPPLEDIADDCSPGMRELIEASLERNPNHRPRAADLLKHEALNPPREDQPRCTSLDSALLERKRL
notes: also called TPL-2 (131-411)
**Q.** Does B2 bind [3]?
**A.** Result: binds

B3: recombinant p105498-969 protein (other)
chain: QDNLFLEKAMQLAKRHANALFDYAVTGDVKMLLAVQRHLTAVQDENGDSVLHLAIIHLHSQLVRDLLEVTSGLISDDIINMRNDLYQTPLHLAVITKQEDVVEDLLRAGADLSLLDRLGNSVLHLAAKEGHDKVLSILLKHKKAALLLDHPNGDGLNAIHLAMMSNSLPCLLLLVAAGADVNAQEQKSGRTALHLAVEHDNISLAGCLLLEGDAHVDSTTYDGTTPLHIAAGRGSTRLAALLKAAGADPLVENFEPLYDLDDSWENAGEDEGVVPGTTPLDMATSWQVFDILNGKPYEPEFTSDDLLAQGDMKQLAEDVKLQLYKLLEIPDPDKNWATLAQKLGLGILNNAFRLSPAPSKTLMDNYEVSGGTVRELVEALRQMGYTEAIEVIQAASSPVKTTSQAHSLPLSPASTRQQIDELRDSDSVCDSGVETSFRKLSFTESLTSGASLLTLNKMPHDYGQEGPLEGKI
**Q.** For B3, which “effect on Myc-Raf1(CAAX) MEK kinase activity” value [4] is on record?
**A.** Its value is “unaffected”.

**Q.** And the “IC50 of inhibition of TPL-2 MEK kinase activity (phosphorylation of GST-MEK1(K207A) in vitro)” value [5]?
**A.** The value was 0.09 µM.

**Q.** What about the “IC50 of inhibition of TPL-2ΔC MEK kinase activity in vitro” value [6] of the same molecule?
**A.** The value was 1 µM.

B4: endogenous TPL-2 (mouse 3T3 fibroblasts) (enzyme, UniProt Q07174 1-467, looked up)
chain: MEYMSTGSDEKEEIDLLIKHLNVSEVIDIMENLYASEEPGVYEPSLMTMYPDSNQNEERSESLLRSGQEVPWLSSVRYGTVEDLLAFANHVSNMTKHFYGRRPQECGILLNMVISPQNGRYQIDSDVLLVPWKLTYRNIGSGFVPRGAFGKVYLAQDMKTKKRMACKLIPIDQFKPSDVEIQACFRHENIAELYGAVLWGDTVHLFMEAGEGGSVLEKLESCGPMREFEIIWVTKHILKGLDFLHSKKVIHHDIKPSNIVFMSTKAVLVDFGLSVKMTEDVYLPKDLRGTEIYMSPEVILCRGHSTKADIYSLGATLIHMQTGTPPWVKRYPRSAYPSYLYIIHKQAPPLEDIAGDCSPGMRELIEAALERNPNHRPKAADLLKHEALNPPREDQPRCQSLDSALFERKRLLSRKELQLPENIADSSCTGSTEESEVLRRQRSLYIDLGALAGYFNIVRGPPTLEYG
**Q.** Does B4 bind [7]?
**A.** Result: binds
